Columns and labels:
[1] = molecular target: antigen of LL2 (not named; LL2 is called an anti-B-cell monoclonal antibody); assay: cell binding assay, calculated from the ID50 values; cells not named
WN = assay: competitive binding ELISA with WN as the surrogate Ag, from ID50 values
[2] = molecular target: antigen of hMN14 (not named); assay: competitive binding assay; format and target not stated
[3] = molecular target: antigen of LL2 (not named; LL2 is called an anti-B-cell monoclonal antibody); assay: as above

## LL2 F(ab')2, DOX-dextran conjugated (5.1 DOX/F(ab')2) (antibody)
[1]
  Immunoreactivity (%), Cell binding: 41.9%
WN
  Immunoreactivity (%), ELISA: 42.2%

## LL2 F(ab')2, non-conjugated (murine mAb, naturally glycosylated in the V domain) (antibody)
[1]
  Immunoreactivity (%), Cell binding: 100%
WN
  Immunoreactivity (%), ELISA: 100%

## hMN14 F(ab')2 with the grafted LL2 Vk glycosylation site, LC-DTPA conjugated at the Vk-CHO (2.1 chelators/F(ab')2) (antibody)
[2]
  Immunoreactivity (from ID50 against unmodified control F(ab')2): 100%

## mLL2 F(ab')2, DTPA conjugated at random lysines (2.2 chelators/F(ab')2) (antibody)
[3]
  Immunoreactivity (from ID50 against unmodified control F(ab')2): 75%

## mLL2 F(ab')2, DTPA conjugated at random lysines (4.3 chelators/F(ab')2) (antibody)
[3]
  Immunoreactivity (from ID50 against unmodified control F(ab')2): 21%

## mLL2 F(ab')2, DTPA conjugated at the Vk-CHO (5.5 chelators/F(ab')2) (antibody)
[3]
  Immunoreactivity (from ID50 against unmodified control F(ab')2): 100%

## mLL2 F(ab')2, LC-DTPA conjugated at the Vk-CHO (4.6 chelators/F(ab')2) (antibody)
[3]
  Immunoreactivity (from ID50 against unmodified control F(ab')2): 100%

— patent publication US6953675
